The values that follow come from patent US20250051821.

Where a chain is given by its changes, count along the chain named.

This data set concerns the target T1, IFF05588.
T1 chain: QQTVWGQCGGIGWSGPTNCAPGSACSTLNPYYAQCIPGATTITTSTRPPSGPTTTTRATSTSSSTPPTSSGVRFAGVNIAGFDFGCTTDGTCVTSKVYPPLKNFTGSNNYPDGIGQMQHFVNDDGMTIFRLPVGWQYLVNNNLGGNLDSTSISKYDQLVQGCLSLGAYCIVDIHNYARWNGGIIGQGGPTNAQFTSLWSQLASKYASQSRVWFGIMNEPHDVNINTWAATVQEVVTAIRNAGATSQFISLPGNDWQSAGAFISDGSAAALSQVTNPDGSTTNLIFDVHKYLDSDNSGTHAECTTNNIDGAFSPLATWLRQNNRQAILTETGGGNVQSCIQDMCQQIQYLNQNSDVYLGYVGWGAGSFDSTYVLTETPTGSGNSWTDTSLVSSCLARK

B1: IFF21352 (protein)
chain: NLNKPVIQPNFPSLAPGLMSHLSPTHSTWDDWGAGWIPRDCKSMVQGAGFSPNDIIPFNIHYDDCGQTWTFCRHKKSPLSELQILDMFGRLPVRMRSFIRHMVFVPGTRSAGSNGDNILVVGDGDITLFAHEIGHSLDSHAFDPSYGVPFSTGNVWVSNYNLDSAVSDSYAQSSQQENFAQETVISLFDKVVPGGIGTIQPNWRAIFHQYATLQGYIGNVIIPGGTCTHRLTDSPPVPMSGSAKSRRGLGLKPDVSLTPEVKEIEAIPMESSITMTSFNEQGKPSGTYVIHLK
Turning to B1, the Relative late peak area (centered, scaled, averaged over 5, 10 and 15 min) is -0.63; the Relative late peak area (centered, scaled, averaged over doses, 24 h; sample diluted 1-fold) came to 0.42.

B2: IFF21375 (protein)
chain: QTLDKPALTPNLDYLLQGNTDNLQPAASHYGKWEDGWIPADCKSIAEDQQLNPTDFEVYDVFYGDCGDAWSFCRHKSSSDSIDTIIDTFGRVPVRMRSWVRHVLTIPGDNWAFNSNGNIAFSGTTSQNLDVALHETGHSLDLLGAYGETLSSSQTWLDNYNQDPNVPDEYARSNQVENVAQNTVVGIYDKVVPGGFGSVQPNWGNIFHQYSTLQSMAKDTIIPGGTCDRHLANSETVSMASTQSNATRMARIRRVKPSHSFRQTYDNIVEGFTPFSTKDTCHFSWA
Take B2: the Relative late peak area (centered, scaled, averaged over 5, 10 and 15 min) came out at 1.08; the Relative late peak area (centered, scaled, averaged over doses, 24 h; sample diluted 10-fold) turned out to be 0.42; the Relative late peak area (reverse phase chromatography, 24 h) turned out to be 0.63.

B3: IFF21338 (protein)
chain: NLNKPVITPNFPGNGLASLGPGLMNNLAPTHSTWDDWGAGWIPSDCKSMVQGAGFSPNDIIPFNIHYDDCAQTWTFCRHKNSPLSEIQILDIFGRLPVRMRQFVRHLVFVPGNKSAGSNGDNVLMVGDVDVTVFAHEIGHSLDSHAFDPSYGVPFSTGNVWVSNYNLDSAVPDPYAQSSQQENFAQQTVVSLYDKVVPGGIGTIQPNWQAIFHQYATLEGYIGNVIIPGGTCTHRLTDSAPVTMSGSKKSRRALGPKPKVSLSPEVKEIEAIPMESSITMTSFDEHGKPNGTYVIHL
As to B3, the Relative late peak area (centered, scaled, averaged over 5, 10 and 15 min) came to 1.11; the Relative late peak area (centered, scaled, averaged over doses, 24 h; sample diluted 10-fold) was 0.59; the Relative late peak area (reverse phase chromatography, 24 h) was found to be 0.6.

B4: IFF21339 (protein)
chain: B3 chain with P149S, E265K
With B4, the Relative late peak area (centered, scaled, averaged over 5, 10 and 15 min) was -0.05; the Relative late peak area (centered, scaled, averaged over doses, 24 h; sample diluted 2-fold) came out at 0.53.

B5: IFF21337 (protein)
chain: B3 chain with P21Q, N25D, N26H, T73S, I87V, Q187E, V196A, N224D, E265K, I295V
On to B5, for which the Relative late peak area (centered, scaled, averaged over 5, 10 and 15 min) came out at 0.9; the Relative late peak area (centered, scaled, averaged over doses, 24 h; sample diluted 10-fold) was 0.52.

B6: IFF21349 (protein)
chain: VLDKPVIQPNFPGGGLDSLSQGLLDNLAPTQSTWDEWGAGWIPQDCKTLAEGSGFSALDITTFNIYYTDCADAWVFCRHKDAPLSEIDMIDLFGRMPVRMRDFVRHIIAVPGNPSAGSSGDNIQMNGGLPITVFVHETGHSLDSHAFSEPFSLSQAWIDAYNQDSAVPDSYAQTSQQENFAQETVVALYDKVVPGGVGTIQPNWNAIFHAYATLQGYIGDVIIPGGTCVNRLTNSAPVPQSNSAKVRIASEKPDVTLRGNVTVLESIPMGSSIELTHFDAEGKPTGRSTVNLG
As to B6, the Relative late peak area (centered, scaled, averaged over 5, 10 and 15 min) was found to be 0.02; the Relative late peak area (centered, scaled, averaged over doses, 24 h; sample diluted 2-fold) is 0.56.
